Positions of bridges follow the written chain, without caps; N, C: chain ends. No end group written: not given here.
How the values were obtained:
[1] = molecular target: T1, VanR~P (phosphorylated VanR) (Enterococcus faecium, UniProt Q06239 1-231, phosphorylated with acetyl phosphate; Asp-55 is named as the residue that accepts the phosphoryl group); test: not stated (comparison of VanR and VanR˜P; reference is unphosphorylated VanR)
[2] = molecular target: T1, VanR~P (phosphorylated VanR); test: cell-based or functional assay
[3] = molecular target: PhoB (complete PhoB sequence)

T1 sequence (Q06239 whole entry): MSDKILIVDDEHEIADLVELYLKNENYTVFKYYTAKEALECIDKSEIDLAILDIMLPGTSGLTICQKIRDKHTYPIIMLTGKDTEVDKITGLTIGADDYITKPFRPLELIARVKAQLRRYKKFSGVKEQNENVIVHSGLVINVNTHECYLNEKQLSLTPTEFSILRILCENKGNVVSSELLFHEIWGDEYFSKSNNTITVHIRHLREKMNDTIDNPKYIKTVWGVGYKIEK

B1: dodecamer peptide SEQ ID NO. 1 (peptide)
peptide: SLCHDSVIGWEC
modifications: disulfide 3-12 (inferred)
notes: also called Peptide E12
- fold difference between binding to VanR and binding to VanR˜P [1]: > 100 fold

B2: peptide SEQ ID NO. 2 (peptide)
peptide: SLAHDSIIGYLS
- IC50 for inhibiting VanR˜P binding to [32P] PVanH (gel shift), relative to SEQ ID NO. 1 [2]: 10 fold

B3: GST-VanSc (Arg-93-TAA-283 stop) (protein)
chain: RVMLSKFAKYFDEINTGIDVLIQNEDKQIELSAEMDVMEQKLNTLKRTLEKREQDAKLAEQRKNDVVMYLAHDIKTPLTSIIGYLSLLDEAPDMPVDQKAKYVHITLDKAYRLEQLIDEFFEITRYNLQTITLTKTHIDLYYMLVQMTDEFYPQLSAHGKQAVIHAPEDLTVSGDPDKLARVFNNILKNAA
- phosphoryl transfer from VanS˜P to PhoB [3]: VanS˜P was incubated with PhoB, and phosphoryl transfer was assessed
